± gives the standard deviation of the averaged measurements.
Experiments:
[1] = tested on: VchCAST RNA-guided transposition machinery (E. coli BL21(DE3) host, lacZ target); experiment: relative integration efficiency (T-LR orientation) vs wild-type transposon end (log2 (normalized fold change)); transposon end mutated: left end; higher = more efficient transposition
Method in brief: (§1)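 A T7-driven effector plasmid encoding a CRISPR array, tniQ-cas8-cas7-cas6 and tnsA-tnsB-tnsC was co-transformed into E. coli BL21(DE3) together with a pUC57 mini-transposon donor holding barcoded pools of 1549 left-end or 1849 right-end variants. Transformants were plated with 0.1 mM IPTG at 37°C for 18 h. Illumina sequencing of PCR-amplified input plasmids and genomic integration junctions gave barcode abundances, and relative integration efficiency is their output/input fold change, normalised to reference barcodes and log-transformed.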

[2] = tested on: VchCAST RNA-guided transposition machinery (E. coli BL21(DE3) host, lacZ target); experiment: relative integration efficiency (T-RL orientation) vs wild-type transposon end (log2 (normalized fold change)); transposon end mutated: left end; higher = more efficient transposition
Method in brief: as §1

## AATGTTGTTGATGCAACCATAAAGTGATATTTATACCGTTCGTATAATGTATGCTATACCAAGTTATCAACCATATATTGATATCTCACAAAACAACCATAAGTTGATATTTTTGTGAATCGAGTATTTCAGCAAAACTACTGCAGTAAGAA
[1]
  relative integration efficiency (log2): -3.21 ± 0.88
[2]
  relative integration efficiency (log2): -4.32 ± 1.2

## AATGTTGTTGATGCAACCATAAAGTGATATTTATTGTGAGCGGATAACAATTGTGAGCGGATAACAACAACCATATATTGATATCTCACAAAACAACCATAAGTTGATATTTTTGTGAATCGAGTATTTCAGCAAAACTACTGCAGTAAGAA
[1]
  relative integration efficiency (log2): -6.162 ± 0.037
[2]
  relative integration efficiency (log2): -6.71 ± 0.35

## AATGTTGTTGATGCAACCATAAAGTGATATTTATTTATGGCTAGCTCAGTCCTAGGTACAATGCTAGCAACCATATATTGATATCTCACAAAACAACCATAAGTTGATATTTTTGTGAATCGAGTATTTCAGCAAAACTACTGCAGTAAGAA
[1]
  relative integration efficiency (log2): -2.71 ± 0.58
[2]
  relative integration efficiency (log2): -4.66 ± 0.6

## AATGTTGTTGATGCAACCATAAAGTGATATTTCCGCCGGCGGGCGCCGACTACCAGGCCAACACCCCACCAACGCGCGGTCGCGAGACACCCCACCAACGCCTGGTCGCGGGGGTGTCCGATCTGATTTCAGCAAAACTACTGCAGTAAGAA
[1]
  relative integration efficiency (log2): -5 ± 1.2
[2]
  relative integration efficiency (log2): -6.65 ± 1.1

## AATGTTGTTGATGCAACCATAAAGTGATATTTGCTAGCACTATACCTAGGACTGAGCTAGCCGTCAACAACCATATATTGATATCTCACAAAACAACCATAAGTTGATATTTTTGTGAATCGAGTATTTCAGCAAAACTACTGCAGTAAGAA
[1]
  relative integration efficiency (log2): < -10
[2]
  relative integration efficiency (log2): -5.87 ± 1

## AATGTTGTTGATGCAACCATAAAGTGATATTTGCTAGCATTGTACCTAGGACTGAGCTAGCCATAAACAACCATATATTGATATCTCACAAAACAACCATAAGTTGATATTTTTGTGAATCGAGTATTTCAGCAAAACTACTGCAGTAAGAA
[1]
  relative integration efficiency (log2): -4.41 ± 1.3
[2]
  relative integration efficiency (log2): -3.5 ± 0.79

## AATGTTGTTGATGCAACCATAAAGTGATCGGGCATAATTATTTATAATCAGCAACTTAACCACAAAACAACCATATATTGATCGAGAACAAAACAACCATAAGTTGATCGGGGTGTGAATCGAGTATTTCAGCAAAACTACTGCAGTAAGAA
[1]
  relative integration efficiency (log2): -3.33 ± 1.4
[2]
  relative integration efficiency (log2): -3.68 ± 1.3

## AATGTTGTTGATGCAACCATAAAGTGATCGGGCCGCCGGCGGGCGCCGACTACCAGGCCAACACCCCACCAACGCGCGGTCGCGAGACACCCCACCAACGCCTGGTCGCGGGGGTGTCCGATCTGATTTCAGCAAAACTACTGCAGTAAGAA
[1]
  relative integration efficiency (log2): -7.44 ± 0.81
[2]
  relative integration efficiency (log2): -8.26 ± 1.7

## AATGTTGTTGATGCAACCATAAAGTGATTAAATATAATTATTTATAATCAGCAACTTAACCACAAAACAACCATATATTGATTAGAGACAAAACAACCATAAGTTGATTAAAATGTGAATCGAGTATTTCAGCAAAACTACTGCAGTAAGAA
[1]
  relative integration efficiency (log2): -1.1 ± 0.76
[2]
  relative integration efficiency (log2): -2.17 ± 0.87

## AATGTTGTTGATGCAACCATAAAGTGTATAAATATAATTATTTATAATCAGCAACTTAACCACAAAACAACCATATATTGTATAGAGACAAAACAACCATAAGTTGTATAAAATGTGAATCGAGTATTTCAGCAAAACTACTGCAGTAAGAA
[1]
  relative integration efficiency (log2): -3.62 ± 1.7
[2]
  relative integration efficiency (log2): -4.69 ± 1.2

## AATGTTGTTGATGCAACCATAACTGTCGCGGGCCGCCGGCGGGCGCCGACTACCAGGCCAACACCCCACCAACGCGCGGTCGCGAGACACCCCACCAACGCCTGGTCGCGGGGGTGTCCGATCTGATTTCAGCAAAACTACTGCAGTAAGAA
[1]
  relative integration efficiency (log2): < -10
[2]
  relative integration efficiency (log2): < -10

## AATGTTGTTGATGCAACCATAAGTTGATATTTTATAATTATTTATAATCAGCAACTTAACCACAAAACAACCATAAAATGATAATTAACAAAAGTTGGTATTCAACTATAAAATGTGAATCGAGTATTTCAGCAAAACTACTGCAGTAAGAA
[1]
  relative integration efficiency (log2): -0.577 ± 0.68
[2]
  relative integration efficiency (log2): -2.57 ± 1.1

## AATGTTGTTGATGCAACCATAAGTTGATATTTTATAATTATTTATAATCAGCAACTTAACCACAAAACAACCATAAAGTGATATTTAACAAAAGTTGGTATTCAACTATAAAATGTGAATCGAGTATTTCAGCAAAACTACTGCAGTAAGAA
[1]
  relative integration efficiency (log2): -1.03 ± 1.1
[2]
  relative integration efficiency (log2): -2.4 ± 0.96

## AATGTTGTTGATGCAACCATAAGTTGATATTTTATAATTATTTATAATCAGCAACTTAACCACAAAACAACCATAAGTTGATATTTTACAAAAGTTGGTATTCAACTATAAAATGTGAATCGAGTATTTCAGCAAAACTACTGCAGTAAGAA
[1]
  relative integration efficiency (log2): -1.03 ± 2.3
[2]
  relative integration efficiency (log2): -3.19 ± 1.4

## AATGTTGTTGATGCAACCATAAGTTGATATTTTATAATTATTTATAATCAGCAACTTAACCACAAAACAACCATATATTGATATCTCACAAAAGTTGGTATTCAACTATAAAATGTGAATCGAGTATTTCAGCAAAACTACTGCAGTAAGAA
[1]
  relative integration efficiency (log2): -1.32 ± 0.89
[2]
  relative integration efficiency (log2): -2.64 ± 1.1

## AATGTTGTTGATGCAACCATAAGTTGATATTTTATAATTATTTATAATCAGCAACTTAACCACAAAACACCCATAAATTGATAATTAACAAAAGTTGGTATTCAACTATAAAATGTGAATCGAGTATTTCAGCAAAACTACTGCAGTAAGAA
[1]
  relative integration efficiency (log2): -0.777 ± 0.9
[2]
  relative integration efficiency (log2): -2.37 ± 1.2

— the supplement of paper PMC10201428
